Results as given in paper PMC12618757.

Target: EGFP-mPiezo1 (murine Piezo1 fused to EGFP) (murine) (UniProt E2JF22)
Chain of UniProt E2JF22 (E2JF22 whole entry, the tested form may be a part): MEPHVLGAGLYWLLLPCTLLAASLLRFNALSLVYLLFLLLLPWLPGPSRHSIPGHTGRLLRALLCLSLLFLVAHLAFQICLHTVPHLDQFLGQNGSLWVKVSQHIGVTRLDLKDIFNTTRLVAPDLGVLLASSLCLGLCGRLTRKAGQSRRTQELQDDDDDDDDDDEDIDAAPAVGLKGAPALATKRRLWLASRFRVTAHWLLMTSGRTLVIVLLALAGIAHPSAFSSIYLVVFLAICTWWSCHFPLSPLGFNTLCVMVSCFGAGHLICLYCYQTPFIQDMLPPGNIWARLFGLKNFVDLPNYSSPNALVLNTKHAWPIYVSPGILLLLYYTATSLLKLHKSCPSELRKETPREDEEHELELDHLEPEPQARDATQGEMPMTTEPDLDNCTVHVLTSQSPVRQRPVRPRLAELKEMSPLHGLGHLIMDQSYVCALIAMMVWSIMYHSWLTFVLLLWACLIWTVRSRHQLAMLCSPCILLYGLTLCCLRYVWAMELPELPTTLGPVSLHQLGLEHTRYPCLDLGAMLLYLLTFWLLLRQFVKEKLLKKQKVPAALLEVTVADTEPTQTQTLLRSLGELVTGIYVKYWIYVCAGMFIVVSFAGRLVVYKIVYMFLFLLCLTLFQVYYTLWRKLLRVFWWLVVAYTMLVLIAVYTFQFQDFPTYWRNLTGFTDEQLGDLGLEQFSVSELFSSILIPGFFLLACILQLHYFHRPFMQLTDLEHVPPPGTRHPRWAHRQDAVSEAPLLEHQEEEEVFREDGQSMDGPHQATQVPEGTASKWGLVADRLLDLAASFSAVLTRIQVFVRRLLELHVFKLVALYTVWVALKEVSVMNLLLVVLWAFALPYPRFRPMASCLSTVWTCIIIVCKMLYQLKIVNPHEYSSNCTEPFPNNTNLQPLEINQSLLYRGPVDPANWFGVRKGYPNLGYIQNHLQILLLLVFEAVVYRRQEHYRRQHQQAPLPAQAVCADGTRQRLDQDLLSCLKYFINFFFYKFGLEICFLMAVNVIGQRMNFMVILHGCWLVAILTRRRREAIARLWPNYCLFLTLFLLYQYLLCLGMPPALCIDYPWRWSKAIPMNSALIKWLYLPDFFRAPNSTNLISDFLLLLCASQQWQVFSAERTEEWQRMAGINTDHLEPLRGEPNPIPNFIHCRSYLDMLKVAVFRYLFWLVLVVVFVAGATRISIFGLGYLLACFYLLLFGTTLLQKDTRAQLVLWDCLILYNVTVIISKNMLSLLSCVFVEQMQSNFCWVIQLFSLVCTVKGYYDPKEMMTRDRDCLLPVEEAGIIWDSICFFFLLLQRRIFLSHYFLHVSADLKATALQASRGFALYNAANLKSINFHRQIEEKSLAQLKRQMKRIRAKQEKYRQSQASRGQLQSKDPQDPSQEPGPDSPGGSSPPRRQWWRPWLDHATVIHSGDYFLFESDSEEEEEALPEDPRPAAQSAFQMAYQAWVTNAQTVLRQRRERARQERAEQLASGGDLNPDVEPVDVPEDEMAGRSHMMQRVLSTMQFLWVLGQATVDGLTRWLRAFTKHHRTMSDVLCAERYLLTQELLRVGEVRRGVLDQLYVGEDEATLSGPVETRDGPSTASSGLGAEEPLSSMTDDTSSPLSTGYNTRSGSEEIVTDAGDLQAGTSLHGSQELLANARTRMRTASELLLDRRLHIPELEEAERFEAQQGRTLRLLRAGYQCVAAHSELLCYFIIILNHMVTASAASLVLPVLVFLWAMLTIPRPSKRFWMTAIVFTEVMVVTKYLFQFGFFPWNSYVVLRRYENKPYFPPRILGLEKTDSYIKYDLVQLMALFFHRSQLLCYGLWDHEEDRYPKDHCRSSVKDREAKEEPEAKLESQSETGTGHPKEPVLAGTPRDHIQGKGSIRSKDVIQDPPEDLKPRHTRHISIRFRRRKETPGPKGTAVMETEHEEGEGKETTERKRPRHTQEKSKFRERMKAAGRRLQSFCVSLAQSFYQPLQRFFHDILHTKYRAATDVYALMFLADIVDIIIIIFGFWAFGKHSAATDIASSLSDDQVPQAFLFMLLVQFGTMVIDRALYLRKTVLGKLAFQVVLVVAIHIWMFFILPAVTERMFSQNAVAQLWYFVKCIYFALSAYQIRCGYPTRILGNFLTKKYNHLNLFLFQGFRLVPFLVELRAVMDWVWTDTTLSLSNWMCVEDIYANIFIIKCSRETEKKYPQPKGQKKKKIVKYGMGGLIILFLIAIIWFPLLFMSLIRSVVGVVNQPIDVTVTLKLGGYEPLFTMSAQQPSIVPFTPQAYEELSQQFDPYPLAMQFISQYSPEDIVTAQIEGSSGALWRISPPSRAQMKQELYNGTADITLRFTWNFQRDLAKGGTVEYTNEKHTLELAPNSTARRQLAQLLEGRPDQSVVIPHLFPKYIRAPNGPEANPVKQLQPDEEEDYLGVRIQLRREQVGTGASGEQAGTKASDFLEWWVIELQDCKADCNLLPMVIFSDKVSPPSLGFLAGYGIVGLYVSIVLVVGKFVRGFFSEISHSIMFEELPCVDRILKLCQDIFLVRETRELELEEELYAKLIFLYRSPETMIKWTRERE

In the case of LecB-S22A mutant (natural protein), the average stretch-induced current at −80 mmHg, EGFP-mPiezo1-overexpressing H1299 cells, LecB-S22A for 3 h (not significantly changed compared to untreated control cells) is reported as -36.5 pA.
